Measurements as given in PMC7350285.

Experiments:
[1] = target: BRG1 AT-BD P1456L (human, UniProt P51532 1434-1569, P1456L); assay: BLI
[2] = target: BRG1 AT-BD R1502H (human, UniProt P51532 1434-1569, R1502H); assay: BLI
Sequence of BRG1 AT-BD R1502H (P51532 1434-1569 R1502H): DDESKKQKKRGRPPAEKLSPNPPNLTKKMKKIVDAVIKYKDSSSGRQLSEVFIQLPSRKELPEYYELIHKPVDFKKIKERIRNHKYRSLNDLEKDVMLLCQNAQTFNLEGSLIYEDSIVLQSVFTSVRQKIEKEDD

Sequence of BRG1 AT-BD P1456L (P51532 1434-1569 P1456L): as the sequence (P51532 1434-1569 R1502H) above, with P23L, H69R counted along it

B1: biotinylated SELEX-DNA (dsDNA)
DNA 1: CCTCAATTAAATCTC
DNA 2: GAGATTTAATTGAGG
B1 was tested, and the Kd [1] was 1200 ± 100 nM and the Kd [2] was 2400 ± 200 nM.
